In article PMC10673995, “Discovery of a novel cardiac-specific myosin modulator using artificial intelligence-based virtual screening” (Nature Communications, 2023):

Target: myosin S2 tail domain (UniProt P12883)
Experiment: MST; Monolith NT.115; 100 nmol/L Alexa647-labeled protein fixed, partner titrated (which was labeled is not told); 20 mmol/L Mops pH 7, 1 mmol/L MgCl2, 50 mmol/L KCl, 1 mmol/L DTT, 0.05% Tween-20; various nucleotides, with and without F10

Sequence of myosin S2 tail domain (P12883 whole entry, the tested form may be a part): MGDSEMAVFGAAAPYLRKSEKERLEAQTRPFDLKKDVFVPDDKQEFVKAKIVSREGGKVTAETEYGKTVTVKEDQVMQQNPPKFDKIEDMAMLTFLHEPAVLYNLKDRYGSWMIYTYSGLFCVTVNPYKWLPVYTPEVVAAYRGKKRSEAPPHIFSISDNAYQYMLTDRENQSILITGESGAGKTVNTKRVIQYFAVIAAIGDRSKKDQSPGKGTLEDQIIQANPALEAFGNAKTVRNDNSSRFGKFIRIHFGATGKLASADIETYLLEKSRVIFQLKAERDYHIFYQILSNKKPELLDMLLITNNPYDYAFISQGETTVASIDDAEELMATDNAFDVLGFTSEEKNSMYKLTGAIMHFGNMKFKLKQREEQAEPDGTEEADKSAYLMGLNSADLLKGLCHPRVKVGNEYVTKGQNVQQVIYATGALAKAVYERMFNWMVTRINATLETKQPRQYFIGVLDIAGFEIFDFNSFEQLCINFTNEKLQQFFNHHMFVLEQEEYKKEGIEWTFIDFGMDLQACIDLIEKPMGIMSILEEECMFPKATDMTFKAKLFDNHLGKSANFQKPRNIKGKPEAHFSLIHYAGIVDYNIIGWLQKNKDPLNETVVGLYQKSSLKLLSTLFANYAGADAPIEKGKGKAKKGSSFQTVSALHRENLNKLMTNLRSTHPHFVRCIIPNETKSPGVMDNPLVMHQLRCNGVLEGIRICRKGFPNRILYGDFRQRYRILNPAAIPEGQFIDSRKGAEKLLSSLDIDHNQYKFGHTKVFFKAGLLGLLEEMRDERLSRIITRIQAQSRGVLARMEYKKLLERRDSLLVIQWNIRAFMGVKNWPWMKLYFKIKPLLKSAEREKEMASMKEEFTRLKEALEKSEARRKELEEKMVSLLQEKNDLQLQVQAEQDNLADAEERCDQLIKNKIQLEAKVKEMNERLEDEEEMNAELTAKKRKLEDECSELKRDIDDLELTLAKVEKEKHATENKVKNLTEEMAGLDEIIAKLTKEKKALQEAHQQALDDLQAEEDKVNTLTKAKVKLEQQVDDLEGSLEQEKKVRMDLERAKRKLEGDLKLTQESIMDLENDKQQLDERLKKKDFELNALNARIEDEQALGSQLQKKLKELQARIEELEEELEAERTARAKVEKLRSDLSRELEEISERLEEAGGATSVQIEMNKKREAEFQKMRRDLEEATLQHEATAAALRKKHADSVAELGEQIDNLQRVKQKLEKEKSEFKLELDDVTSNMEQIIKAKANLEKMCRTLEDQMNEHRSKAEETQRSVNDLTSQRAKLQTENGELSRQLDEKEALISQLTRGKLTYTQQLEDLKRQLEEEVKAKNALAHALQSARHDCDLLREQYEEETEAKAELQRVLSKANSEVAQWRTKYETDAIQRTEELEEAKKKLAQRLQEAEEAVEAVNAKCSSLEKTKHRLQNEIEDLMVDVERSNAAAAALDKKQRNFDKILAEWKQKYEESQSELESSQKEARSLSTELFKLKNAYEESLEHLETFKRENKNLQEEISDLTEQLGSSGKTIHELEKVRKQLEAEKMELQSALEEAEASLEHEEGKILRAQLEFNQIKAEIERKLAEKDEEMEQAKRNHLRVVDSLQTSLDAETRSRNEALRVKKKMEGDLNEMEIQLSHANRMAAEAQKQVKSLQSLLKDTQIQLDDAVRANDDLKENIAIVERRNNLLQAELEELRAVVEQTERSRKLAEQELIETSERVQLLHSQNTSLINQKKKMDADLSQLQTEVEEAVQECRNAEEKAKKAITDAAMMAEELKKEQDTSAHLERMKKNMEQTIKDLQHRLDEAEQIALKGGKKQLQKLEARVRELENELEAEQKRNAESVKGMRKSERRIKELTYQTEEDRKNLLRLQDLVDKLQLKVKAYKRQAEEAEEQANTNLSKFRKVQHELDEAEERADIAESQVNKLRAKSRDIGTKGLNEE

## bovine β-cardiac myosin S1 (from UniProt Q9BE39 1-1935; P85100 1-199) (domain or fragment)
  Kd: 15 µM
